Results on four molecules are retold here after publication PMC10397247.

The target in one test is T1, 4H446-AA.
T1 chain: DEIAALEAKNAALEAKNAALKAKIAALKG
As to the kind of experiment: two-hybrid library CCmax.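 Further: natural log of median RNA to DNA barcode read ratio; higher means stronger binding.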 The note with it: mean of both orientations.

In another test the target is T2, 4H63-AA.
T2 chain: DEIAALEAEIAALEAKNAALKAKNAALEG
Kind of test: two-hybrid library CCmax.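 Further: natural log of median RNA to DNA barcode read ratio; higher means stronger binding.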 The conditions noted are these: mean of both orientations.

A further test deals with T3, 4H432-AA.
T3 chain: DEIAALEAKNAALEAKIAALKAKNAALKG
Kind of test: two-hybrid library CCmax.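 Further: natural log of median RNA to DNA barcode read ratio; higher means stronger binding.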

The next test deals with T4, 4H850-bA.
T4 chain: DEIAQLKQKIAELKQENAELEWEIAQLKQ
Kind of test: two-hybrid library CCNG1.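 Further: natural log of median RNA to DNA barcode read ratio; higher means stronger binding.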

For the next test, the target named is T5, 4H906-bA.
T5 chain: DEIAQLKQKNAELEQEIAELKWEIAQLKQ
As to the kind of experiment: two-hybrid library CCNG1.

In a further test the target is T6, 4H908-bN.
T6 chain: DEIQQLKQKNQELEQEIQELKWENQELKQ
Kind of test: two-hybrid library CCNG1.

The next test addresses T7, 4H967-bN.
T7 chain: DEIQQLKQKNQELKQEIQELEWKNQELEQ
As to the kind of experiment: two-hybrid library CCNG1.

A further test deals with T8, 4H918-bN.
T8 chain: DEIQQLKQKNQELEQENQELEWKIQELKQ
Kind of test: two-hybrid library CCNG1.

A further test has as its target T9, 4H953-bN.
T9 chain: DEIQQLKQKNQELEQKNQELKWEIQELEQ
Kind of test: two-hybrid library CCNG1.

A further test addresses T10, 4H883-bN.
T10 chain: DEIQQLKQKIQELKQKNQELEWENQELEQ
As to the kind of experiment: two-hybrid library CCNG1.

B1: 4H432-AA (peptide)
chain: DEIAALEAKNAALEAKIAALKAKNAALKG
Take B1: the interaction score is -1.7 with 4H446-AA, -1.92 with 4H63-AA and -1.51 with 4H432-AA.

B2: 4H850-bA (peptide)
chain: DEIAQLKQKIAELKQENAELEWEIAQLKQ
For the molecule B2, the interaction score in the test with 4H850-bA was 0.428; with 4H906-bA it was -1.27.

B3: 4H883-bN (peptide)
chain: DEIQQLKQKIQELKQKNQELEWENQELEQ
With B3, the interaction score with 4H908-bN is -1.19; with 4H967-bN it was -0.861; with 4H918-bN, -0.986; in the test with 4H953-bN, -1.82; in the test with 4H883-bN it was -1.15.

B4: 4H908-bN (peptide)
chain: DEIQQLKQKNQELEQEIQELKWENQELKQ
As to B4, the interaction score with 4H908-bN is -0.618; in the test with 4H967-bN, -0.23; in the test with 4H918-bN it was -0.988; with 4H953-bN, -0.77.
